B1: H1H6958N2-DM1: anti-PRLR antibody H1H6958N2 conjugated to the maytansinoid DM1 through an SMCC linker (conjugate)
VH: QVQLVESGGGVVQPGRSLRLSCGASGFTFRNYGMQWVRQGPGKGLEWVTLISFDGNDKYYADSVKGRFTISRDNSKNTLFLQMNSLRTEDTAVYYCARGGDFDYWGQGTLVTVSS
VL: DIQMTQSPSSLSASVGDRVTITCRASQDIRKDLGWYQQKPGKAPKRLIYAASSLHSGVPSRFSGSGSGTEFTLTISSLQPEDFATYYCLQHNSYPMYTFGQGTKLEIK
B2: H1H6958N2: anti-PRLR antibody, receptor blocking, human IgG1 Fc form of H2M6958N2 of Table 1; HCVR/LCVR SEQ ID NOs 290/298 (antibody, V domains shown)
VH: B1 VH
VL: B1 VL

Legend:
T47D cells = experiment: In vitro cell viability (cell kill) assay, CCK8; assay type: cell-based, human; conditions: T47D cells (PRLR 12× above background), 3 days; read-out: IC50, growth inhibition / cell viability
In short: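 T47D cells grown overnight, then exposed for 3 days to anti-PRLR-DM1 ADCs (SMCC non-cleavable linker) or DM1-SMe at 500 nM to 5 pM.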

MCF7/PRLR tumors = experiment: MCF7/PRLR breast tumor xenograft, tumor volume (Example 13); assay type: in vivo, NCr nude mice
Method: After MCF7 or MCF7/PRLR tumors reached an average volume of ˜150-200 mm^3 (14-16 days post implantation), mice were randomized into treatment groups (n=8-9 mice/group) and received a single dose or three once-weekly doses of H1H6958N2-DM1, control ADC, or vehicle control, administered systemically by intravenous tail-vein injection. Tumor size and body weight were measured in vivo twice per week throughout the duration of the study.
The T47Dv11 model was used to assess the activity of H1H6958N2-DM1 in a model with significant levels of endogenous PRLR. […] Initially, 10×10^6 parental T47D cells were implanted subcutaneously (SC) into the left flank of female C.B.-17 SCID mice (Taconic, Hudson N.Y.). Tumors were supplemented with a 90-day release 1.7 mg estrogen pellet (Innovative Research America). Where T47D tumors were observed, they were excised and cut into 3 mm fragments and subsequently implanted into the left flank of separate female C.B.-17 SCID mice. Subsequent passaging was performed until a large tumor was disaggregated into a single cell suspension. The cells (named T47Dv11) from this tumor were then cultured in vitro and expanded. […] For efficacy studies, mice were implanted with 7.5×10^6 T47Dv11 cells into the left flank of female C.B.-17 SCID mice supplemented with a 90-day release 0.72 mg/pellet estrogen pellet. For MCF7 and MCF7/PRLR tumor xenografts, 2×10^7 MCF7/PRLR cells were implanted SC into the left mammary fat pad of female NCr nude mice (7-8 weeks old) supplemented with 90-day release 0.72 mg/pellet estrogen pellets. Tumors were measured with calipers twice a week for the duration of each study. Tumor volume was calculated using the formula TV=(length×width^2)/2.

PC3 cells = experiment: In vitro cell viability (cell kill) assay, CCK8; assay type: cell-based, human; conditions: Table 18
In short: (§1)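 hPRLR stable lines; anti-PRLR-DM1 ADC (SMCC) or DM1-SMe, 10-pt 500 nM–5 pM, 3 d. CCK8 OD450 final 1-3 h (293/PC3); Hoechst nuclear count imaging (MCF7).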

HEK293 (293) cells = experiment: In vitro cell viability (cell kill) assay, CCK8; assay type: cell-based, human
In short: as §1

Row | Molecule | IC50 (T47D cells) | antitumor efficacy (MCF7/PRLR tumors; single dose 10 and 15 mg/kg) | antitumor efficacy (MCF7/PRLR tumors; single dose at 2.5-15 mg/kg) | antitumor efficacy (MCF7/PRLR tumors; three once-weekly doses of 5 and 15 mg/kg) | % Kill (PC3 cells) | IC50 (PC3 cells) | % Kill (HEK293 (293) cells; 293, Table 11, 3 days) | IC50 (HEK293 (293) cells; 293, Table 11, 3 days) | % Kill (HEK293 (293) cells; HEK293, Table 13, + 15 nM PRL) | IC50 (HEK293 (293) cells; HEK293, Table 13, + 15 nM PRL) | antitumor efficacy of controls (MCF7/PRLR tumors; MCF7/PRLR model, dose not stated)
1 | B1 | 1.3 nM | eradication of the tumors | significant antitumor efficacy observed at all doses | tumor eradication | 81% | 110 nM | 98% | 75 nM | 86% | 110 nM | –
2 | B2 | – | – | – | – | – | – | – | – | – | – | failed to induce any inhibition of tumor growth
